Source: patent US20260185118A1 (priority 2023, published 2026)
Where a chain is given by its changes, count along the chain named.

B1: CsPUB21DN (protein)
chain: MILSWKRLRGGRGRRAGKKQPGVESGGEMELTTPNHFRAPISLDLMKDPVTLSTGITYDRENIEKWIHEDGNITCPVTNRVLTSFEPIPNHTIRRMIQDWCVENRSYGIERIPTPRIPVSSVEVFEINCNITTACKSEDQAGCRDLVAKIKKWTKESDRNKRCIVDNGAVSVLAEAFETFSKTCLDENVSVLEEILSTLTLLFPLAGEGLTYLGSASSMRCMVWFLKSGDLSRRRNAVLVLREIVSSDHRKVNVLLDIEGAIEPLFKLIKEPICPTATKASLVVVYRTITSASATEKPIQKFVDMGLVSLLLEMLVDAQRSLCEKALSVLDGLCSSDYGRGDAYNNSLIFPVIVKKILRVSDLATEFAVSILWKLCKNEEREEKTAFAEALQVGAFQKLLLLLQVGCADKTKEHVSELLKLLNPHRARLECIDSMDFKDLKRPF
modifications: left off: large carriers
B2: CsPUB21: citrus plant U-box E3 ubiquitin ligase protein, amino acid sequence SEQ ID No. 1; overexpressed in citrus (protein)
chain: B1 chain with A39C

Experiments:
CsMYC2 [1] = type: biochemical, Citrus sinensis; settings: with AtUBA1, AtUBC8 and ubiquitin, anti-MBP immunoblot
CsPUB21 = type: biochemical, Citrus sinensis; settings: in the presence of E1 (AtUBA1) and E2 (AtUBC8), anti-c-myc immunoblot
[2] = system: Diaphorina citri Kuwayama; type: in vivo; settings: overexpressing leaves versus blank vector control leaves, 100 psyllids starved 2 h, counted after 40 min
CsMYC2 protein = type: cell-based, Citrus sinensis; settings: tobacco leaves, 35S:CsMYC2-myc co-injected, versus 35S:YFP
CsMYC2 [3] = type: cell-based, Citrus sinensis; settings: tobacco leaves, 2-3 days, cytoplasm and nucleus
CsMYC2 [4] = type: binding, Citrus sinensis; settings: yeast AH109, SD-Leu-Trp-His with 5 mM 3-AT

Molecule	polyubiquitination of the CsMYC2 protein in vitro (CsMYC2 [1])	E3 ubiquitin ligase activity (auto-ubiquitination) (CsPUB21)	Diaphorina citri Kuwayama attracted by leaves of transgenic citrus [2]	accumulated level of the CsMYC2 protein on coexpression (CsMYC2 protein)	interaction with CsMYC2 (BiFC) (CsMYC2 [3])	interaction with CsMYC2 (yeast two-hybrid) (CsMYC2 [4])
B1	cannot ubiquitinate CsMYC2	does not show ubiquitination activity	about 40%	this reduction was inhibited	does not affect the interaction with CsMYC2	does not affect the interaction with CsMYC2
B2			63.5%			
